Measurements taken from the MegaScale stability set (Tsuboyama et al. 2023).

B1: HEEH_KT_rd6_3546 (parent)
chain: SEEDKEREHWERLNRDFELRVLDTTFIAHHAEEVIKLLRWLEK

Variants of: B1
Assay: folding stability dG (cDNA display proteolysis); higher = more stable
Details: PBS, room temperature

| Variant | folding stability dG [kcal/mol] |
| --- | --- |
| SEEDKEQEHWERLNRDFELRVLDTTFIAHHAEEVIKLLRWLEK [R7Q] | 1.34 |
| SEEDKETEHWERLNRDFELRVLDTTFIAHHAEEVIKLLRWLEK [R7T] | 1.26 |
| SEEDKEHEHWERLNRDFELRVLDTTFIAHHAEEVIKLLRWLEK [R7H] | 1.18 |
| SEEDKEIEHWERLNRDFELRVLDTTFIAHHAEEVIKLLRWLEK [R7I] | 1.36 |
| SEEDKEKEHWERLNRDFELRVLDTTFIAHHAEEVIKLLRWLEK [R7K] | 1.19 |
| SEEDKEFEHWERLNRDFELRVLDTTFIAHHAEEVIKLLRWLEK [R7F] | 1.13 |
| SEEDKEWEHWERLNRDFELRVLDTTFIAHHAEEVIKLLRWLEK [R7W] | 1.39 |
| SEEDKEVEHWERLNRDFELRVLDTTFIAHHAEEVIKLLRWLEK [R7V] | 1.28 |
| SEEDKEAEHWERLNRDFELRVLDTTFIAHHAEEVIKLLRWLEK [R7A] | 1.53 |
| SEEDKEYEHWERLNRDFELRVLDTTFIAHHAEEVIKLLRWLEK [R7Y] | 1.21 |
| SEEDKELEHWERLNRDFELRVLDTTFIAHHAEEVIKLLRWLEK [R7L] | 1.26 |
| SEEDKEPEHWERLNRDFELRVLDTTFIAHHAEEVIKLLRWLEK [R7P] | 1.19 |
| SEEDKEDEHWERLNRDFELRVLDTTFIAHHAEEVIKLLRWLEK [R7D] | 1.25 |
| SEEDKENEHWERLNRDFELRVLDTTFIAHHAEEVIKLLRWLEK [R7N] | 1.26 |
| SEEDKYREHWERLNRDFELRVLDTTFIAHHAEEVIKLLRWLEK [E6Y] | 1.55 |
| SEEDKIREHWERLNRDFELRVLDTTFIAHHAEEVIKLLRWLEK [E6I] | 1.62 |
| SEEDKNREHWERLNRDFELRVLDTTFIAHHAEEVIKLLRWLEK [E6N] | 1.38 |
| SEEDKRREHWERLNRDFELRVLDTTFIAHHAEEVIKLLRWLEK [E6R] | 1.38 |
| SEEDKGREHWERLNRDFELRVLDTTFIAHHAEEVIKLLRWLEK [E6G] | 1.35 |
| SEEDKPREHWERLNRDFELRVLDTTFIAHHAEEVIKLLRWLEK [E6P] | 1.19 |

| Variant | folding stability dG [kcal/mol] |
| --- | --- |
| SEEDKFREHWERLNRDFELRVLDTTFIAHHAEEVIKLLRWLEK [E6F] | 1.73 |
| SEEDKTREHWERLNRDFELRVLDTTFIAHHAEEVIKLLRWLEK [E6T] | 1.56 |
| SEEDKMREHWERLNRDFELRVLDTTFIAHHAEEVIKLLRWLEK [E6M] | 1.54 |
| SEEDKLREHWERLNRDFELRVLDTTFIAHHAEEVIKLLRWLEK [E6L] | 1.55 |
| SEEDKKREHWERLNRDFELRVLDTTFIAHHAEEVIKLLRWLEK [E6K] | 1.18 |
| SEEDKSREHWERLNRDFELRVLDTTFIAHHAEEVIKLLRWLEK [E6S] | 1.47 |
| SEEDKHREHWERLNRDFELRVLDTTFIAHHAEEVIKLLRWLEK [E6H] | 1.43 |
| SEEDKVREHWERLNRDFELRVLDTTFIAHHAEEVIKLLRWLEK [E6V] | 1.56 |
| SEEDKAREHWERLNRDFELRVLDTTFIAHHAEEVIKLLRWLEK [E6A] | 1.49 |
| SEEDKCREHWERLNRDFELRVLDTTFIAHHAEEVIKLLRWLEK [E6C] | 1.7 |
| SEEDKWREHWERLNRDFELRVLDTTFIAHHAEEVIKLLRWLEK [E6W] | 1.8 |
| SEEDKDREHWERLNRDFELRVLDTTFIAHHAEEVIKLLRWLEK [E6D] | 0.956 |
| SEEDKQREHWERLNRDFELRVLDTTFIAHHAEEVIKLLRWLEK [E6Q] | 1.48 |
| SEEDKERDHWERLNRDFELRVLDTTFIAHHAEEVIKLLRWLEK [E8D] | 1.17 |
| SEEDKERVHWERLNRDFELRVLDTTFIAHHAEEVIKLLRWLEK [E8V] | 1.26 |
| SEEDKERPHWERLNRDFELRVLDTTFIAHHAEEVIKLLRWLEK [E8P] | 1.09 |
| SEEDKERAHWERLNRDFELRVLDTTFIAHHAEEVIKLLRWLEK [E8A] | 1.4 |
| SEEDKERGHWERLNRDFELRVLDTTFIAHHAEEVIKLLRWLEK [E8G] | 1.5 |
| SEEDKERLHWERLNRDFELRVLDTTFIAHHAEEVIKLLRWLEK [E8L] | 1.47 |
| SEEDKERKHWERLNRDFELRVLDTTFIAHHAEEVIKLLRWLEK [E8K] | 1.32 |

| Variant | folding stability dG [kcal/mol] |
| --- | --- |
| SEEDKERRHWERLNRDFELRVLDTTFIAHHAEEVIKLLRWLEK [E8R] | 1.34 |
| SEEDKERTHWERLNRDFELRVLDTTFIAHHAEEVIKLLRWLEK [E8T] | 1.58 |
| SEEDKERMHWERLNRDFELRVLDTTFIAHHAEEVIKLLRWLEK [E8M] | 1.73 |
| SEEDKERHHWERLNRDFELRVLDTTFIAHHAEEVIKLLRWLEK [E8H] | 1.15 |
| SEEDKERIHWERLNRDFELRVLDTTFIAHHAEEVIKLLRWLEK [E8I] | 1.43 |
| SEEDKERYHWERLNRDFELRVLDTTFIAHHAEEVIKLLRWLEK [E8Y] | 1.28 |
| SEEDKERNHWERLNRDFELRVLDTTFIAHHAEEVIKLLRWLEK [E8N] | 1.48 |
| SEEDKERWHWERLNRDFELRVLDTTFIAHHAEEVIKLLRWLEK [E8W] | 2.04 |
| SEEDKERFHWERLNRDFELRVLDTTFIAHHAEEVIKLLRWLEK [E8F] | 1.96 |
| SEEDKERSHWERLNRDFELRVLDTTFIAHHAEEVIKLLRWLEK [E8S] | 1.86 |
| SEEDKERQHWERLNRDFELRVLDTTFIAHHAEEVIKLLRWLEK [E8Q] | 1.34 |
| SEEDKEREHWKRLNRDFELRVLDTTFIAHHAEEVIKLLRWLEK [E11K] | 1.69 |
| SEEDKEREHWGRLNRDFELRVLDTTFIAHHAEEVIKLLRWLEK [E11G] | 1.76 |
| SEEDKEREHWFRLNRDFELRVLDTTFIAHHAEEVIKLLRWLEK [E11F] | 2.43 |
| SEEDKEREHWLRLNRDFELRVLDTTFIAHHAEEVIKLLRWLEK [E11L] | 2.11 |
| SEEDKEREHWIRLNRDFELRVLDTTFIAHHAEEVIKLLRWLEK [E11I] | 2.17 |
| SEEDKEREHWHRLNRDFELRVLDTTFIAHHAEEVIKLLRWLEK [E11H] | 1.79 |
| SEEDKEREHWARLNRDFELRVLDTTFIAHHAEEVIKLLRWLEK [E11A] | 2.07 |
| SEEDKEREHWDRLNRDFELRVLDTTFIAHHAEEVIKLLRWLEK [E11D] | 1.55 |
